Experimental data reported in patent publication US20150099705A1.

Molecular target: human Nav1.7 (sodium channel protein type 9 subunit alpha) (human) (UniProt Q15858)
Test: cell-based or functional assay

**Q.** For wild type Protoxin-II (peptide), which IC50, FLIPR assay is on record?
**A.** 4 nM
